# Data from publication PMC11934133 (2025).
# How the values were obtained:
# [1] = target: T1, Zika virus SPH2015 nonstructural protein 1 (NS1) (Zika virus (strain SPH2015)); assay: BLI; NS1 immobilized, GST-VHH in solution
# T1 chain: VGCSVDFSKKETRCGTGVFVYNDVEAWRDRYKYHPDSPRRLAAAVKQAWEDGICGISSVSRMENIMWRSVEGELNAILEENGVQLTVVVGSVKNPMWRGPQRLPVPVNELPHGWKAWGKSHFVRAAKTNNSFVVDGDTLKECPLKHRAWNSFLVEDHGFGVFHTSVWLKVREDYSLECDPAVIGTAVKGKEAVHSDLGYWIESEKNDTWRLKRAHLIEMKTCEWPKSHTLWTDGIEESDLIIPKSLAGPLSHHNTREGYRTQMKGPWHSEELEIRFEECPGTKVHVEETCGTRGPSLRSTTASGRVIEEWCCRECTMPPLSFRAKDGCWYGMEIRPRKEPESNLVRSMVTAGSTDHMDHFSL
# [2] = target: T1, Zika virus SPH2015 nonstructural …; assay: BLI; GST-VHH immobilized, NS1 in solution
# [3] = target: Zika virus SPH2015 nonstructural protein 1 (NS1) (Zika virus (strain SPH2015)); assay: BLI
# [4] = target: T1, Zika virus SPH2015 nonstructural …; assay: BLI
# [5] = target: T1, Zika virus SPH2015 nonstructural …; assay: BLI; NS1 saturated with Nb32-Strep
Binder,koff [1] [s⁻¹],koff [2] [s⁻¹],Kd [3] [nM],fold increase of koff against the orientation with the nanobody immobilised [3] [fold],fold increase of koff against the GST-tagged nanobody [3] [fold],fold increase of kon against the GST-tagged nanobody [3] [fold],koff [4] [s⁻¹],Kd [5] [nM]
GST-tagged ZIKV_NbD6 (VHH) VHH: EVQLVESGGGSVQPGGSLRLSCAASGFAFSHYAMRWVRQAPGKGLEWVSVINSDGEDTWYADSVKGRFTISRDNAKNTLYLQMNSLKPEDTGVYYCAIGRTHDTKGQGTQVTVS,7.6e-05,< 1e-07,,,,,,
GST-tagged ZIKV_Nb32 (VHH) VHH: EVQLVESGGGLVQAGGSLRLSCAVSGIDFSRYAITWNRQSPGNQRREWVATLPPADTTVYADAVKGRFTISRDNTKNTVYLQMNSLKPEDTAVYYCATSPRIHNWGQGTQVTVS,2e-05,< 1e-07,0.035,> 100,,,,
ZIKV_Nb32 with C-terminal StrepTag-II (VHH) VHH: EVQLVESGGGLVQAGGSLRLSCAVSGIDFSRYAITWNRQSPGNQRREWVATLPPADTTVYADAVKGRFTISRDNTKNTVYLQMNSLKPEDTAVYYCATSPRIHNWGQGTQVTVSS,,,0.16,,15,3.2,0.00029,
ZIKV_NbD6 with C-terminal StrepTag-II (VHH) VHH: EVQLVESGGGSVQPGGSLRLSCAASGFAFSHYAMRWVRQAPGKGLEWVSVINSDGEDTWYADSVKGRFTISRDNAKNTLYLQMNSLKPEDTGVYYCAIGRTHDTKGQGTQVTVSS,,,8,,26,3.6,0.002,5.9
